Reference: patent US7838294B2, “Inhibitors of the JNK signal transduction pathway and methods of use” (University of Massachusetts, priority 1997, dated 2010)
Entries after “also recorded” stand apart in the source; their conditions may differ. No end group written: not given here.

B1: GST-JIP-1 residues 135-202: GST fusion protein containing residues 135-202 of JIP-1 (protein, UniProt Q9WVI9 135-202, looked up, fragment)
chain: PAPRSQGQGPGTGSGDTYRPKRPTTLNLFPQVPRSQDTLNNNSLGKKHSWQDRVSRSSSPLKTGEQTP
modifications: GST fusion
B2: GST-JIP-1 residues 127-281: GST fusion protein containing residues 127-281 of JIP-1 (protein)
chain: PKAESNQDPAPRSQGQGPGTGSGDTYRPKRPTTLNLFPQVPRSQDTLNNNSLGKKHSWQDRVSRSSSPLKTGEQTPPHEHICLSDELPPQGSPVPTQDRGTSTDSPCRRSAATQMAPPSGPPATAPGGRGHSHRDRIHYQADVRLEATEEIYLTP
modifications: left off: a dimerising Fc or GST
B3: GST-JIP-1 residues 127-202: GST fusion protein containing residues 127-202 of JIP-1 (amino terminal region) (protein, UniProt Q9WVI9 127-202, looked up, fragment)
chain: PKAESNQDPAPRSQGQGPGTGSGDTYRPKRPTTLNLFPQVPRSQDTLNNNSLGKKHSWQDRVSRSSSPLKTGEQTP
modifications: GST fusion
B4: GST-ATF2: GST fusion protein containing residues 1-109 of ATF2 (protein)
chain: MKFKLHVNSARQYKDLWNMSDDKPFLCTAPGCGQRFTNEDHLAVHKHKHEMTLKFGPARNDSVIVADQTPTPTRFLKNCEEVGLFNELASPFENEFKKASEDDIKKMPL
modifications: left off: a dimerising Fc or GST
notes: GST fusion protein containing residues 1-109 of ATF2
B5: GST-JIP-1 residues 203-281: GST fusion protein containing residues 203-281 of JIP-1 (carboxy terminal region) (protein, UniProt Q9WVI9 203-281, looked up, fragment)
chain: PHEHICLSDELPPQGSPVPTQDRGTSTDSPCRRSAATQMAPPSGPPATAPGGRGHSHRDRIHYQADVRLEATEEIYLTP
modifications: GST fusion
B6: GST-JIP-1 residues 164-240: GST fusion protein containing residues 164-240 of JIP-1 (central region) (protein, UniProt Q9WVI9 164-240, looked up, fragment)
chain: PQVPRSQDTLNNNSLGKKHSWQDRVSRSSSPLKTGEQTPPHEHICLSDELPPQGSPVPTQDRGTSTDSPCRRSAATQ
modifications: GST fusion
B7: GST-Jun: GST fusion protein containing residues 1-79 of c-Jun (protein)
chain: MTAKMETTFYDDALNASFLPSESGPYGYSNPKILKQSMTLNLADPVGSLKPHLRAKNSDLLTSPDVGLLKLASPELERL
modifications: left off: a dimerising Fc or GST
notes: GST fusion protein containing residues 1-79 of c-Jun

Experiments:
Format in all cases: binding
JNK1 = target: T1, JNK1 (Homo sapiens, UniProt P45983); assay: GST-fusion pull-down from cell lysates, Flag immunoblot: JNK1; conditions: for binding to JNK1: 5 μg GST-fusion protein on glutathione-Sepharose, Flag-JNK1 lysate, one hour 4° C.; for level of binding to JNK1 compared with JNK2: GST pull-down, Flag immunoblot
T1 construct: expressed in transfected cells
T1 sequence (P45983 1-384 isoform P45983-2): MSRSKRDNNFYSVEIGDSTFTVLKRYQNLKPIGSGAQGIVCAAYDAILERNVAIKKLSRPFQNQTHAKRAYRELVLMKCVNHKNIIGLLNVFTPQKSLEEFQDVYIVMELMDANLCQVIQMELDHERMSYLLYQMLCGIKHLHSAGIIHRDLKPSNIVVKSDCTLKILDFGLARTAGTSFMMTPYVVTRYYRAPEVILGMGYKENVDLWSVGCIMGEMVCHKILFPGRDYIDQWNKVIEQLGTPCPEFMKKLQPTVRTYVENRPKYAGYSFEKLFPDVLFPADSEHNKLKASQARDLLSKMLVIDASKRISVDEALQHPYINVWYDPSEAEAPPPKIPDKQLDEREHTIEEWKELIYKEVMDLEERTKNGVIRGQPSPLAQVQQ
Protocol: (§1) To test whether JIP-1 binding to JNK is also isoform-dependent, a binding assay was utilized. Cell lysates (1 ml in TLB) containing JNK1, JNK2, or p38 MAP kinase, each tagged with the Flag epitope, were incubated with 5 μg GST-fusion proteins pre-bound to 10 μl glutathione-Sepharose. The GST fusion proteins used contain residues 127-202 (SEQ ID NO:15), 203-281 (SEQ ID NO:16), 164-240 (SEQ ID NO:17), or 127-281 (SEQ ID NO:4) of JIP-1. The GST-ATF2 fusion protein contains residues 1-109 of ATF2, and the GST-Jun fusion protein contains residues 1-79 of c-Jun. After incubation for one hour at 4° C. and three washes with TLB, bound proteins were detected by protein immunoblot analysis with the M2 monoclonal antibody, which is specific for the Flag epitope. Dérijard, et al., supra; Sluss et al., supra; Gupta et al., supra. […] This finding is consistent with the results of previous studies. In contrast, when GST-JIP-1 fusion proteins containing residues 127-202 or 127-281 of JIP-1 were tested in the assay, these proteins bound both JNK1 and JNK2.
(§2) The GST-JIP-1 fusion proteins containing various portions of the JIP-1 gene were used to define regions of JIP-1 that are required for JNK interaction. A GST-JIP-1 fusion protein containing residues 127-281 of JIP-1 bound both JNK1 and JNK2.
(§3) To more precisely define the JIP-1 sequence required for JNK binding activity, additional […] fusion proteins were constructed. These fusion proteins contained residues 135-202 (SEQ ID NO:18), 144-202 (SEQ ID NO:19), 154-202 (SEQ ID NO:20), 164-202 (SEQ ID NO:21), 127-143 (SEQ ID NO:22), 127-153 (SEQ ID NO:23), or 127-163 (SEQ ID NO:24) of JIP-1. Proteins containing residues 127-202, 135-202, 144-202, […], and 127-163 all bound both JNK1 and JNK2. Thus, JIP-1 residues 144-163 are important for the interaction of JIP-1 with JNK.

JNK2 = target: T2, JNK2 (Homo sapiens, UniProt P45984); assay: GST-fusion pull-down from cell lysates, Flag immunoblot: JNK2; conditions: 5 μg GST-fusion protein on glutathione-Sepharose, Flag-JNK2 lysate, one hour 4° C.
T2 construct: expressed in transfected cells
Protocol: as §1, §2, §3

[1] = target: T3, JIP-1-JNK interaction (JNK1) (Homo sapiens, UniProt P45983); assay: Synthetic peptide competition of JIP-1-JNK interaction (GST-JIP-1 127-281 pull-down); conditions: for effect of peptide on JIP-1 binding to JNK1: peptide 0, 4, 8, 16, 32, and 64 μg/ml, GST-JIP-1 (residues 127-281); for inhibition of JIP-1 binding to JNK by peptide: synthetic peptides 64 μg/ml, JNK1 binding to GST-JIP-1 residues 127-281
T3 construct: expressed in transfected cells; GST-JIP-1 from a bacterial pGEX-3X vector
T3 sequence (P45983 1-384 isoform P45983-2): as above
Protocol: The effect of increasing concentrations (0, 4, 8, 16, 32, and 64 μg/ml) of a synthetic peptide corresponding to JIP-1 residues 148-174 (SEQ. ID NO:3) or a control peptide having a scrambled sequence (SEQ ID NO:12) on JIP-1-JNK interaction was examined. Peptides were synthesized using an Applied Biosystems machine. Cell lysates containing Flag epitope-tagged JNK were incubated with GST-JIP-1 (residues 127-281) prebound to glutathione-Sepharose. The beads were washed, and bound proteins were detected by protein immunoblot analysis with a Flag-specific antibody.
The JNK binding domain of JIP-1 contains three amino acids, Lys-155, Thr-159, and Leu-160, that are conserved in the JNK binding domains of ATF2 and c-Jun (FIG. 2). A hydrophobic amino acid, Leu, is found at residue 162 of JIP-1. ATF2 and c-Jun also contain hydrophobic amino acids (ATF2, Phe; c-Jun, Leu) in the position corresponding to residue 162 of JIP-1. To test if these conserved residues are involved in JNK binding, the wild type JIP-1 JBD (residues 148-174) was substituted with glycines in these positions to produce the peptides shown in FIG. 3 (SEQ ID NOs:7-11). The mutant peptides are identical to the wild type peptide except for the indicated glycine substitutions. The binding of JNK1 to GST, as well as a GST fusion protein containing JIP-1 residues 127-281, was examined in the absence and presence of the synthetic peptides (64 μg/ml). A peptide with a scrambled sequence (SEQ ID NO:12) was used as a control. […] In contrast, the control peptide caused no change in JNK binding.
Peptides suspected of having JIP-1 activity can be tested in the JNK binding assay described supra. Peptides are synthesized by methods that are well known to those skilled in the art; for example, using an Applied Biosystems synthesizer. Cell lysates containing Flag epitope-tagged JNK are incubated with GST-JIP-1 (residues 127-281) bound to glutathione-Sepharose, either with or without synthetic peptides (0, 4, 8, 16, 32 or 64 μg/ml), for one hour at 4° C. The beads are washed in TLB, and the bound proteins are detected by protein immunoblot analysis with a Flag-specific antibody, e.g., M2. Synthetic peptides with JIP-1 activity are those which inhibit the interaction of JIP-1 with JNK, as detected in this assay.

Molecule	binding to JNK1 (JNK1)	binding to JNK2 (JNK2)	effect of peptide on JIP-1 binding to JNK1 [1]	inhibition of JIP-1 binding to JNK by peptide [1]	level of binding to JNK1 compared with JNK2 (JNK1)
GST-JIP-1 residues 127-163: GST fusion protein containing residues 127-163 of JIP-1 (PKAESNQDPAPRSQGQGPGTGSGDTYRPKRPTTLNLF; also: GST fusion; UniProt Q9WVI9 127-163, looked up, fragment)	bound	bound			
GST-JIP-1 residues 144-202: GST fusion protein containing residues 144-202 of JIP-1 (PGTGSGDTYRPKRPTTLNLFPQVPRSQDTLNNNSLGKKHSWQDRVSRSSSPLKTGEQTP; also: GST fusion; UniProt Q9WVI9 144-202, looked up, fragment)	bound	bound			
GST-JIP-1 residues 154-202: GST fusion protein containing residues 154-202 of JIP-1 (PKRPTTLNLFPQVPRSQDTLNNNSLGKKHSWQDRVSRSSSPLKTGEQTP; also: GST fusion; UniProt Q9WVI9 154-202, looked up, fragment)	bound	bound			
SEQ ID NO:12: control peptide having a scrambled sequence (NSLGTDDTQYSRRPPKVRQPNPTFTLL) [reference compound]			no effect	no change	
SGDTYRPKRPTTLNLFPQVPRSQDTLN [JIP-1 residues 148-174, synthetic peptide corresponding to JIP-1 residues 148-174, core of the JBD]			dose-dependent decrease	dose-dependent inhibition	
B1	bound	bound			
B2	bound	bound			
B3	bound; also recorded: JNK binding activity was observed	bound; also recorded: JNK binding activity was observed			
B4					greater than binding to JNK2
B5	No JNK binding was detected	No JNK binding was detected			
B6	No JNK binding was detected	No JNK binding was detected			
B7					greater than binding to JNK2
